From the Human Domainome abundance scans (Beltran et al. 2025)
± gives the uncertainty stated by the source.

B1: Bromodomain adjacent to zinc finger domain protein 2B, residues 1927 to 1982; numbered along this chain, Q9UIF8 (parent)
chain: KSIMKVYCQICRKGDNEELLLLCDGCDKGCHTYCHRPKITTIPDGDWFCPACIAKA
B2: Zinc finger homeobox protein 3, residues 2244 to 2299; numbered along this chain, Q15911 (parent)
chain: SSRTRFTDYQLRVLQDFFDANAYPKDDEFEQLSNLLNLPTRVIVVWFQNARQKARK

Variants of: B1
Assay: abundance fitness (aPCA) (normalised: wild type 0, dead -1); higher = more abundant; growth selection in yeast, the domain comes from the species named
Conditions: Homo sapiens

Variant	abundance fitness
C11Q	-1.19 ± 0.18
C11N	-1.04 ± 0.2
I39D	-0.194 ± 0.13
I39N	0.002 ± 0.18
H35N	-0.09 ± 0.15
H35C	-0.084 ± 0.14
I53K	-0.089 ± 0.14
I53D	-0.006 ± 0.12
I53W	-0.179 ± 0.1
I53L	0.043 ± 0.088
C52S	-0.652 ± 0.091
C52N	-0.523 ± 0.19
C52H	-0.392 ± 0.17
C52G	-0.544 ± 0.067
C52W	-0.971 ± 0.12
T40P	0.031 ± 0.13
T40W	-0.082 ± 0.11
T40E	-0.026 ± 0.12
G45W	-0.728 ± 0.32
G45D	-0.068 ± 0.13
E18Y	-0.188 ± 0.18
E18M	-0.039 ± 0.13
E18S	0.01 ± 0.1

Variant	abundance fitness
E18K	0.051 ± 0.16
T41V	-0.057 ± 0.074
T41A	-0.112 ± 0.078
T41Y	-0.217 ± 0.16
T41D	-0.085 ± 0.11
R36A	-0.007 ± 0.074
R36K	-0.168 ± 0.13
R36S	0.065 ± 0.074
R36I	-0.175 ± 0.14
R36P	-0.078 ± 0.1
R36G	-0.015 ± 0.068
L20G	-0.509 ± 0.11
L20C	-0.011 ± 0.14
L20D	-0.566 ± 0.14
L20M	-0.009 ± 0.13
L20S	-0.308 ± 0.092
L20T	-0.094 ± 0.096
D46V	-0.046 ± 0.088
D46A	-0.146 ± 0.089
D46I	-0.305 ± 0.16
D46H	-0.122 ± 0.12
W47A	-0.168 ± 0.087
W47R	-0.115 ± 0.073

Variant	abundance fitness
W47T	-0.213 ± 0.1
Y7V	-0.145 ± 0.071
Y7Q	-0.043 ± 0.12
P50A	-0.074 ± 0.48
P50L	-0.71 ± 0.4
R12A	0.008 ± 0.073
R12Y	-0.183 ± 0.15
R12D	-0.021 ± 0.1
R12E	0.008 ± 0.097
K38E	-0.186 ± 0.11
K38T	-0.016 ± 0.092
C30A	-0.101 ± 0.08
C30Y	0.004 ± 0.11
C30K	-0.076 ± 0.099
C30E	0.034 ± 0.083
C30S	-0.011 ± 0.077
C34D	-0.63 ± 0.14
C34I	-0.961 ± 0.19
C34W	-0.895 ± 0.11
C34A	-0.688 ± 0.088
C34Y	-0.659 ± 0.15
F48C	0.037 ± 0.12
F48M	-0.01 ± 0.14

Variant	abundance fitness
F48K	0.085 ± 0.14
F48S	0.037 ± 0.08
M4E	-0.184 ± 0.12
G29T	-0.088 ± 0.11
G29H	-0.167 ± 0.17
G29F	-0.035 ± 0.18
G29A	-0.061 ± 0.086
E17S	-0.015 ± 0.12
E17Q	0.103 ± 0.16
E17L	-0.008 ± 0.098
S2Y	-0.558 ± 0.4
S2M	-0.23 ± 0.21
S2P	-0.243 ± 0.15
S2H	0.085 ± 0.25
S2V	-0.156 ± 0.14
I3Y	-0.327 ± 0.16
V6Q	-0.043 ± 0.11
V6C	-0.208 ± 0.13
Q9L	-0.103 ± 0.077
Q9C	-0.091 ± 0.094
A54E	0.113 ± 0.1
A54S	-0.082 ± 0.088
A54I	-0.265 ± 0.13

Variant	abundance fitness
A54R	-0.211 ± 0.073
A54M	-0.309 ± 0.19
A54F	-0.093 ± 0.14
A54W	-0.229 ± 0.1
A51S	-0.024 ± 0.082
C49Q	-0.959 ± 0.16
C49D	-0.244 ± 0.16
C49K	-0.83 ± 0.14
T32S	0.052 ± 0.091
K13T	-0.164 ± 0.092
K13V	-0.138 ± 0.081
K13P	-0.512 ± 0.1
D44P	0.048 ± 0.11
D44G	-0.017 ± 0.077
D44V	-0.105 ± 0.1
D44Y	-0.222 ± 0.2
D44A	-0.11 ± 0.1
L21M	-0.076 ± 0.13
L21K	-0.005 ± 0.12
L21W	-0.248 ± 0.1
L21T	-0.042 ± 0.097
D27W	-0.069 ± 0.088
D27S	-0.099 ± 0.09

Variant	abundance fitness
D27N	-0.096 ± 0.11
L19V	-0.011 ± 0.074
L19G	-0.064 ± 0.08
C8N	-1.11 ± 0.33
C8G	-0.916 ± 0.073
Y33F	-0.154 ± 0.17
Y33E	-0.058 ± 0.09
D15G	-0.099 ± 0.068
D15M	-0.406 ± 0.21
I10N	0.266 ± 0.17
I10V	-0.051 ± 0.079
I10W	-0.03 ± 0.099
I10L	0.004 ± 0.08
G14P	-0.026 ± 0.11
G14Y	0.079 ± 0.18
G14L	-0.056 ± 0.075
G14C	-0.171 ± 0.13
G14M	0.002 ± 0.15
G14Q	-0.003 ± 0.13
D24E	0.219 ± 0.14
D24Y	-0.669 ± 0.14
D24C	0.073 ± 0.15
H31P	-0.556 ± 0.1

Variant	abundance fitness
H31Q	-0.622 ± 0.11
I42R	-0.054 ± 0.073
P43A	-0.006 ± 0.083
L22Y	-0.174 ± 0.17
K28F	0.094 ± 0.14
K28L	-0.025 ± 0.097
K28C	-0.158 ± 0.13
K28G	-0.02 ± 0.079
P37R	-0.227 ± 0.071
P37V	-0.228 ± 0.1
N16L	-0.116 ± 0.084
N16Y	-0.032 ± 0.15
N16D	0.046 ± 0.21
N16S	-0.008 ± 0.085
G25E	-0.014 ± 0.1
G25W	-0.251 ± 0.096
G25T	-0.09 ± 0.1
G25P	-0.551 ± 0.1

Variants of: B2
Assay: as above
Conditions: Homo sapiens

Variant	abundance fitness
V44W	-0.084 ± 0.12
V44T	-0.056 ± 0.15
V44S	0.08 ± 0.13
V44R	-0.093 ± 0.092
V44Y	-0.571 ± 0.21
V45D	0.155 ± 0.096
V45W	-0.136 ± 0.1
V45E	0.244 ± 0.1
V45T	-0.028 ± 0.074
V45Y	-0.19 ± 0.11
V45H	0.032 ± 0.092
V45G	0.077 ± 0.071
V45I	-0.055 ± 0.098
V45K	-0.061 ± 0.095
V45M	-0.142 ± 0.083
V45C	0.088 ± 0.097
V45F	-0.171 ± 0.1
V45P	-0.21 ± 0.076
V45L	-0.12 ± 0.076
V45S	0.008 ± 0.074
V45Q	0.046 ± 0.089
V45A	0.004 ± 0.074
R51H	-0.382 ± 0.41
R51G	-0.606 ± 0.43
R51L	-0.137 ± 0.34
R51S	-0.256 ± 0.28

Variant	abundance fitness
R51C	-0.168 ± 0.48
K56M	-0.045 ± 0.22
K56H	-0.053 ± 0.12
K56F	-0.089 ± 0.24
K56T	-0.032 ± 0.11
K56Q	-0.163 ± 0.41
K56N	0.103 ± 0.14
K56I	-0.302 ± 0.16
K56G	-0.029 ± 0.23
K56D	-0.026 ± 0.23
K56A	0.063 ± 0.2
K56P	0.004 ± 0.19
K56R	-0.028 ± 0.12
K56Y	-0.158 ± 0.16
F47D	-0.751 ± 0.13
F47S	-0.75 ± 0.084
F47G	-0.66 ± 0.1
F47N	-0.928 ± 0.13
F47W	-0.399 ± 0.14
F47P	-0.89 ± 0.12
F47I	-0.408 ± 0.096
F47C	-0.728 ± 0.11
F47T	-0.618 ± 0.095
F47Q	-1.02 ± 0.17
F47Y	-0.112 ± 0.094
F47L	-0.639 ± 0.088

Variant	abundance fitness
F47V	-0.565 ± 0.083
F47R	-0.941 ± 0.1
F47K	-0.983 ± 0.2
F47E	-0.762 ± 0.2
F47A	-0.729 ± 0.1
F47H	-0.534 ± 0.12
Q52Y	-0.14 ± 0.097
Q52V	0.128 ± 0.083
Q52W	-0.204 ± 0.12
Q52P	-0.263 ± 0.068
Q52L	-0.107 ± 0.065
Q52N	-0.144 ± 0.088
Q52D	0.239 ± 0.12
Q52M	-0.142 ± 0.11
Q52C	0.002 ± 0.093
Q52S	-0.023 ± 0.068
Q52R	-0.135 ± 0.071
Q52H	-0.092 ± 0.08
Q52A	-0.008 ± 0.077
Q52F	-0.21 ± 0.08
Q52T	-0.036 ± 0.07
Q52K	-0.077 ± 0.12
R55V	-0.048 ± 0.11
R55K	0.005 ± 0.24
R55H	0.104 ± 0.12
R55W	-0.302 ± 0.17

Variant	abundance fitness
R55I	-0.093 ± 0.097
R55A	-0.172 ± 0.12
R55P	0.051 ± 0.075
R55N	-0.218 ± 0.16
R55M	-0.211 ± 0.16
R55Y	-0.073 ± 0.13
R55D	-0.104 ± 0.2
R55Q	0.049 ± 0.15
R55T	-0.043 ± 0.089
R55G	-0.128 ± 0.11
R55C	-0.229 ± 0.12
R55F	-0.069 ± 0.1
R55L	-0.001 ± 0.074
R55S	0.142 ± 0.075
K53V	-0.085 ± 0.092
K53I	-0.019 ± 0.088
K53E	0.162 ± 0.16
K53G	-0.005 ± 0.11
K53C	-0.029 ± 0.095
K53H	0.013 ± 0.081
K53A	0.032 ± 0.1
K53M	0.008 ± 0.12
K53R	-0.116 ± 0.09
K53S	0.062 ± 0.074
K53N	0.138 ± 0.09
K53D	0.202 ± 0.11

Variant	abundance fitness
K53Q	-0.109 ± 0.1
K53P	-0.237 ± 0.082
K53W	-0.083 ± 0.16
K53T	-0.008 ± 0.078
K53L	-0.013 ± 0.07
K53Y	-0.12 ± 0.091
N49V	-0.362 ± 0.11
N49F	-0.581 ± 0.28
N49P	-0.986 ± 0.2
N49A	-0.222 ± 0.11
N49G	0.046 ± 0.081
N49D	0.066 ± 0.18
N49T	-0.119 ± 0.11
N49Y	-0.497 ± 0.25
N49L	-0.334 ± 0.093
N49R	-0.207 ± 0.089
N49W	-0.252 ± 0.1
N49C	-0.163 ± 0.12
N49S	-0.056 ± 0.11
N49E	0.141 ± 0.13
N49K	-0.024 ± 0.17
N49I	-0.259 ± 0.17
N49H	-0.249 ± 0.21
N49Q	-0.207 ± 0.14
N49M	-0.287 ± 0.15
A54G	0.081 ± 0.26

Variant	abundance fitness
A50K	-0.09 ± 0.12
A50T	-0.08 ± 0.086
A50M	0.047 ± 0.12
A50H	-0.253 ± 0.095
A50G	-0.298 ± 0.081
A50Q	-0.197 ± 0.12
A50P	-1.01 ± 0.11
A50D	-1.01 ± 0.17
A50S	-0.084 ± 0.081
A50V	-0.322 ± 0.08
A50L	-0.159 ± 0.073
A50C	-0.047 ± 0.093
A50E	-0.095 ± 0.14
A50W	-0.496 ± 0.13
A50N	0.009 ± 0.097
A50R	-0.061 ± 0.079
A50I	-0.241 ± 0.11
A50Y	-0.196 ± 0.1
W46S	-0.526 ± 0.13
W46A	-0.86 ± 0.15
W46V	-0.88 ± 0.11
W46M	-0.81 ± 0.14
W46D	-1.14 ± 0.29
W46T	-0.611 ± 0.18
W46C	-0.759 ± 0.2
W46Q	-1.17 ± 0.24

Variant	abundance fitness
W46H	-0.617 ± 0.26
W46P	-1.07 ± 0.22
W46L	-1.09 ± 0.15
W46F	-0.244 ± 0.19
W46E	-0.749 ± 0.13
W46G	-0.856 ± 0.1
W46K	-0.764 ± 0.16
Q48G	-0.029 ± 0.085
Q48C	-0.221 ± 0.18
Q48N	-0.259 ± 0.21
Q48S	-0.022 ± 0.1
Q48K	-0.034 ± 0.16
Q48W	-0.554 ± 0.15
Q48R	-0.071 ± 0.09
Q48E	0.086 ± 0.14
Q48I	-0.085 ± 0.17
Q48A	-0.146 ± 0.13
Q48F	-0.245 ± 0.19
Q48L	-0.309 ± 0.12
Q48H	-0.407 ± 0.19
Q48V	-0.066 ± 0.12
Q48T	-0.168 ± 0.14
